Bounds are passed on as bounds.

Sequences and labels used below:
B1: scFv; the commonest letter at each place (parent)
chain 1: EVKLDETGGGLVQPGRPMKLSCVASGFTFSDYWMNWVRQSPEKGLEWVAQIRNKPYNYETYYSDSVKGRFTISRDDSKSSVYLQMNNLRVEDMGIYYCTGSYYGMDYWGQGTSVTVS
chain 2: DVVMTQTPLSLPVSLGDQASISCRSSQSLVHSNGNTYLRWYLQKPGQSPKVLIYKVSNRFSGVPDRFSGSGSGTDFTLKISRVEAEDLGVYFCSQSTHVPWTFGGGTKLEIK

Variants of B1 are the subject of data set [1]. The experiment in a line: Kd (Tite-Seq). The conditions noted are these: with fluorescein; format: scFv 4-4-20, heavy + light.
Variants of B1 are the subject of data set [2]. Kind of data set: yeast surface expression (ratio to wild type); higher = more expressed. The conditions noted are these: format: scFv 4-4-20, heavy + light.

On to chain 1 EVKLDETGGGLVQPGRPMKLSCVASGFTFSDYWMNWVRQSPEKGLEWVAQIRNKPYNYETYYSDSVKGRFTISRDDSKSSVYLQMNNLRVEDMGIYYCTGSYIGMDFDGQGTSVTVS chain 2 DVVMTQTPLSLPVSLGDQASISCRSSQSLVHSNGNTYLRWYLQKPGQSPKVLIYKVSNRFSGVPDRFSGSGSGTDFTLKISRVEAEDLGVYFCSQSTHVPWTFGGGTKLEIK [chain 1 Y103I Y107F W108D], for which, in data set [1], the Kd was not below 10 µM. Further, in data set [2], the yeast surface expression was determined as 0.437.

On to chain 1 EVKLDETGGGLVQPGRPMKLSCVASGFTFSDYWMNWVRQSPEKGLEWVAQIRNKPYNYETYYSDSVKGRFTISRDDSKSSVYLQMNNLRVEDMGIYYCTGSYIGMDYSGQGTSVTVS chain 2 DVVMTQTPLSLPVSLGDQASISCRSSQSLVHSNGNTYLRWYLQKPGQSPKVLIYKVSNRFSGVPDRFSGSGSGTDFTLKISRVEAEDLGVYFCSQSTHVPWTFGGGTKLEIK [chain 1 Y103I W108S], for which, in data set [1], the Kd is not below 10 µM. Moreover, the yeast surface expression in data set [2] was 0.397.

For the variant chain 1 EVKLDETGGGLVQPGRPMKLSCVASGFTFSDYWMNWVRQSPEKGLEWVAQIRNKPYNYETYYSDSVKGRFTISRDDSKSSVYLQMNNLRVEDMGIYYCTGSYIGMDYCGQGTSVTVS chain 2 DVVMTQTPLSLPVSLGDQASISCRSSQSLVHSNGNTYLRWYLQKPGQSPKVLIYKVSNRFSGVPDRFSGSGSGTDFTLKISRVEAEDLGVYFCSQSTHVPWTFGGGTKLEIK [chain 1 Y103I W108C], the Kd in data set [1] was 3.74 µM. In data set [2], the yeast surface expression came out at 0.359.

For the variant chain 1 EVKLDETGGGLVQPGRPMKLSCVASGFTFSDYWMNWVRQSPEKGLEWVAQIRNKPYNYETYYSDSVKGRFTISRDDSKSSVYLQMNNLRVEDMGIYYCTGSYLGMDYWGQGTSVTVS chain 2 DVVMTQTPLSLPVSLGDQASISCRSSQSLVHSNGNTYLRWYLQKPGQSPKVLIYKVSNRFSGVPDRFSGSGSGTDFTLKISRVEAEDLGVYFCSQSTHVPWTFGGGTKLEIK [chain 1 Y103L], the Kd in data set [1] stood at 0.00708 µM. Moreover, in data set [2], the yeast surface expression came to 1.08.

Consider chain 1 EVKLDETGGGLVQPGRPMKLSCVASGFTFSDYWMNWVRQSPEKGLEWVAQIRNKPYNYETYYSDSVKGRFTISRDDSKSSVYLQMNNLRVEDMGIYYCTGSYKGMDYWGQGTSVTVS chain 2 DVVMTQTPLSLPVSLGDQASISCRSSQSLVHSNGNTYLRWYLQKPGQSPKVLIYKVSNRFSGVPDRFSGSGSGTDFTLKISRVEAEDLGVYFCSQSTHVPWTFGGGTKLEIK [chain 1 Y103K], for which the Kd in data set [1] turned out to be 0.00301 µM. Further, the yeast surface expression in data set [2] worked out at 1.04.

In the case of chain 1 EVKLDETGGGLVQPGRPMKLSCVASGFTFSDYWMNWVRQSPEKGLEWVAQIRNKPYNYETYYSDSVKGRFTISRDDSKSSVYLQMNNLRVEDMGIYYCTGSYKIMDYWGQGTSVTVS chain 2 DVVMTQTPLSLPVSLGDQASISCRSSQSLVHSNGNTYLRWYLQKPGQSPKVLIYKVSNRFSGVPDRFSGSGSGTDFTLKISRVEAEDLGVYFCSQSTHVPWTFGGGTKLEIK [chain 1 Y103K G104I], the equilibrium dissociation constant (Kd) in data set [1] is not below 10 µM. Besides, the yeast surface expression in data set [2] came out at 0.711.

As to chain 1 EVKLDETGGGLVQPGRPMKLSCVASGFTFSDYWMNWVRQSPEKGLEWVAQIRNKPYNYETYYSDSVKGRFTISRDDSKSSVYLQMNNLRVEDMGIYYCTGSYKRMDYVGQGTSVTVS chain 2 DVVMTQTPLSLPVSLGDQASISCRSSQSLVHSNGNTYLRWYLQKPGQSPKVLIYKVSNRFSGVPDRFSGSGSGTDFTLKISRVEAEDLGVYFCSQSTHVPWTFGGGTKLEIK [chain 1 Y103K G104R W108V], the dissociation constant (Kd) in data set [1] was not below 10 µM. In addition, in data set [2], the yeast surface expression turned out to be 0.32.

As for chain 1 EVKLDETGGGLVQPGRPMKLSCVASGFTFSDYWMNWVRQSPEKGLEWVAQIRNKPYNYETYYSDSVKGRFTISRDDSKSSVYLQMNNLRVEDMGIYYCTGSYKGMDYWWQGTSVTVS chain 2 DVVMTQTPLSLPVSLGDQASISCRSSQSLVHSNGNTYLRWYLQKPGQSPKVLIYKVSNRFSGVPDRFSGSGSGTDFTLKISRVEAEDLGVYFCSQSTHVPWTFGGGTKLEIK [chain 1 Y103K G109W], the Kd in data set [1] was not below 10 µM. Besides, in data set [2], the yeast surface expression stood at 0.123.

For the variant chain 1 EVKLDETGGGLVQPGRPMKLSCVASGFTFSDYWMNWVRQSPEKGLEWVAQIRNKPYNYETYYSDSVKGRFTISRDDSKSSVYLQMNNLRVEDMGIYYCTGSYKGMMYWGQGTSVTVS chain 2 DVVMTQTPLSLPVSLGDQASISCRSSQSLVHSNGNTYLRWYLQKPGQSPKVLIYKVSNRFSGVPDRFSGSGSGTDFTLKISRVEAEDLGVYFCSQSTHVPWTFGGGTKLEIK [chain 1 Y103K D106M], the Kd in data set [1] is not below 10 µM. Besides, in data set [2], the yeast surface expression came to 0.716.

For the variant chain 1 EVKLDETGGGLVQPGRPMKLSCVASGFTFSDYWMNWVRQSPEKGLEWVAQIRNKPYNYETYYSDSVKGRFTISRDDSKSSVYLQMNNLRVEDMGIYYCTGSYIGWDYWGQGTSVTVS chain 2 DVVMTQTPLSLPVSLGDQASISCRSSQSLVHSNGNTYLRWYLQKPGQSPKVLIYKVSNRFSGVPDRFSGSGSGTDFTLKISRVEAEDLGVYFCSQSTHVPWTFGGGTKLEIK [chain 1 Y103I M105W], the Kd in data set [1] came out at 0.0146 µM. Further, the yeast surface expression in data set [2] is 0.528.

Consider chain 1 EVKLDETGGGLVQPGRPMKLSCVASGFTFSDYWMNWVRQSPEKGLEWVAQIRNKPYNYETYYSDSVKGRFTISRDDSKSSVYLQMNNLRVEDMGIYYCTGSYIGEDYWGQGTSVTVS chain 2 DVVMTQTPLSLPVSLGDQASISCRSSQSLVHSNGNTYLRWYLQKPGQSPKVLIYKVSNRFSGVPDRFSGSGSGTDFTLKISRVEAEDLGVYFCSQSTHVPWTFGGGTKLEIK [chain 1 Y103I M105E], for which the Kd in data set [1] was not below 10 µM. For the same variant, in data set [2], the yeast surface expression was 0.733.

Take chain 1 EVKLDETGGGLVQPGRPMKLSCVASGFTFSDYWMNWVRQSPEKGLEWVAQIRNKPYNYETYYSDSVKGRFTISRDDSKSSVYLQMNNLRVEDMGIYYCTGSYLGMHYWFQGTSVTVS chain 2 DVVMTQTPLSLPVSLGDQASISCRSSQSLVHSNGNTYLRWYLQKPGQSPKVLIYKVSNRFSGVPDRFSGSGSGTDFTLKISRVEAEDLGVYFCSQSTHVPWTFGGGTKLEIK [chain 1 Y103L D106H G109F]: in data set [1], the Kd was not below 10 µM. Further, in data set [2], the yeast surface expression was 0.0981.

The record behind these values is the FLAb antibody collection (doi:10.7554/elife.23156).
